*1 amine or outer side, *2 acyl side, *3 side chain or, on linkers, in order; H or OH if unused. [ ]: non-standard residue; d: D form. TyrEtNAc = L-tyrosine O-ethyl acetamide, (S)-3-(4-(2-acetamidoethoxy)phenyl)-2-aminopropanoic acid, CC(=O)NCCOc1ccc(C[C@H](N[*:1])C(=O)[*:2])cc1; 3AzaTyrEtNAc = (S)-3-(6-(2-acetamidoethoxy)pyridin-3-yl)-2-aminopropanoic acid, CC(=O)NCCOc1ccc(C[C@H](N[*:1])C(=O)[*:2])cn1; Pro(trans-4-NH2) = O=C([C@@H]1C[C@@H](N[*:3])CN1[*:1])[*:2]; Trp(βS-Me,4-F) = C[C@@H](c1c[nH]c2cccc(F)c12)[C@H](N)C(=O)O; Bip(4'-COOH) = N[C@@H](Cc1ccc(-c2ccc(C(=O)O)cc2)cc1)C(=O)O; 1Nal(3S-Me) = C[C@@H](c1cccc2ccccc12)[C@H](N)C(=O)O; Ala(indazol-1-yl) = N[C@@H](Cn1ncc2ccccc21)C(=O)O; Ala(indolin-1-yl) = N[C@@H](CN1CCc2ccccc21)C(=O)O; Phe(4-COOH) = N[C@@H](Cc1ccc(C(=O)O)cc1)C(=O)O; h3Pal(5-CN) = N#Cc1cncc(CC[C@H](N)C(=O)O)c1; 1Nal = N[C@@H](Cc1cccc2ccccc12)C(=O)O; hTyr = N[C@@H](CCc1ccc(O)cc1)C(=O)O; dDab = NCC[C@@H](N)C(=O)O; Orn = NCCC[C@H](N)C(=O)O; dNMeA = CN[C@H](C)C(=O)O; Dab = NCC[C@H](N)C(=O)O; Nva = CCC[C@H](N)C(=O)O; Dap = NC[C@H](N)C(=O)O; Aib = CC(C)(N)C(=O)O
B1: SEQ ID NO: 122 (Example No. 122) (peptide)
peptide: cyclo([TyrEtNAc]W[Phe(4-COOH)]G[Pro(trans-4-NH2)][1Nal(3S-Me)]D[dNMeA]G[Bip(4'-COOH)]WG[dDab][h3Pal(5-CN)])
SMILES: CC(=O)NCCOc1ccc(C[C@@H]2NC(=O)[C@H](CCc3cncc(C#N)c3)NC(=O)[C@@H](CCN)NC(=O)CNC(=O)[C@H](Cc3c[nH]c4ccccc34)NC(=O)[C@H](Cc3ccc(-c4ccc(C(=O)O)cc4)cc3)NC(=O)CNC(=O)[C@@H](C)N(C)C(=O)[C@H](CC(=O)O)NC(=O)[C@H]([C@@H](C)c3cccc4ccccc34)NC(=O)[C@@H]3C[C@@H](N)CN3C(=O)CNC(=O)[C@H](Cc3ccc(C(=O)O)cc3)NC(=O)[C@H](Cc3c[nH]c4ccccc34)NC2=O)cc1
B2: SEQ ID NO: 121 (Example No. 121) (peptide)
peptide: cyclo([TyrEtNAc]W[Phe(4-COOH)]G[Pro(trans-4-NH2)][1Nal(3S-Me)]D[dNMeA]G[Bip(4'-COOH)]W[Dap][dNMeA][hTyr])
SMILES: CC(=O)NCCOc1ccc(C[C@@H]2NC(=O)[C@H](CCc3ccc(O)cc3)NC(=O)[C@@H](C)N(C)C(=O)[C@H](CN)NC(=O)[C@H](Cc3c[nH]c4ccccc34)NC(=O)[C@H](Cc3ccc(-c4ccc(C(=O)O)cc4)cc3)NC(=O)CNC(=O)[C@@H](C)N(C)C(=O)[C@H](CC(=O)O)NC(=O)[C@H]([C@@H](C)c3cccc4ccccc34)NC(=O)[C@@H]3C[C@@H](N)CN3C(=O)CNC(=O)[C@H](Cc3ccc(C(=O)O)cc3)NC(=O)[C@H](Cc3c[nH]c4ccccc34)NC2=O)cc1
B3: SEQ ID NO: 91 (peptide)
peptide: cyclo([TyrEtNAc]W[Phe(4-COOH)]G[Pro(trans-4-NH2)][1Nal(3S-Me)]D[dNMeA]G[Bip(4'-COOH)][Ala(indolin-1-yl)]G[dDab][h3Pal(5-CN)])
SMILES: CC(=O)NCCOc1ccc(C[C@@H]2NC(=O)[C@H](CCc3cncc(C#N)c3)NC(=O)[C@@H](CCN)NC(=O)CNC(=O)[C@H](CN3CCc4ccccc43)NC(=O)[C@H](Cc3ccc(-c4ccc(C(=O)O)cc4)cc3)NC(=O)CNC(=O)[C@@H](C)N(C)C(=O)[C@H](CC(=O)O)NC(=O)[C@H]([C@@H](C)c3cccc4ccccc34)NC(=O)[C@@H]3C[C@@H](N)CN3C(=O)CNC(=O)[C@H](Cc3ccc(C(=O)O)cc3)NC(=O)[C@H](Cc3c[nH]c4ccccc34)NC2=O)cc1
B4: SEQ ID NO: 99 (peptide)
peptide: cyclo([TyrEtNAc]W[Phe(4-COOH)]G[Pro(trans-4-NH2)][1Nal(3S-Me)]D[dNMeA]G[Bip(4'-COOH)][1Nal][Orn][Aib][hTyr])
SMILES: CC(=O)NCCOc1ccc(C[C@@H]2NC(=O)[C@H](CCc3ccc(O)cc3)NC(=O)C(C)(C)NC(=O)[C@H](CCCN)NC(=O)[C@H](Cc3cccc4ccccc34)NC(=O)[C@H](Cc3ccc(-c4ccc(C(=O)O)cc4)cc3)NC(=O)CNC(=O)[C@@H](C)N(C)C(=O)[C@H](CC(=O)O)NC(=O)[C@H]([C@@H](C)c3cccc4ccccc34)NC(=O)[C@@H]3C[C@@H](N)CN3C(=O)CNC(=O)[C@H](Cc3ccc(C(=O)O)cc3)NC(=O)[C@H](Cc3c[nH]c4ccccc34)NC2=O)cc1
B5: SEQ ID NO: 93 (peptide)
peptide: cyclo([TyrEtNAc]W[Phe(4-COOH)]G[Pro(trans-4-NH2)][1Nal(3S-Me)]D[dNMeA]G[Bip(4'-COOH)][1Nal][Dab][Aib][hTyr])
SMILES: CC(=O)NCCOc1ccc(C[C@@H]2NC(=O)[C@H](CCc3ccc(O)cc3)NC(=O)C(C)(C)NC(=O)[C@H](CCN)NC(=O)[C@H](Cc3cccc4ccccc34)NC(=O)[C@H](Cc3ccc(-c4ccc(C(=O)O)cc4)cc3)NC(=O)CNC(=O)[C@@H](C)N(C)C(=O)[C@H](CC(=O)O)NC(=O)[C@H]([C@@H](C)c3cccc4ccccc34)NC(=O)[C@@H]3C[C@@H](N)CN3C(=O)CNC(=O)[C@H](Cc3ccc(C(=O)O)cc3)NC(=O)[C@H](Cc3c[nH]c4ccccc34)NC2=O)cc1
B6: SEQ ID NO: 92 (peptide)
peptide: cyclo([TyrEtNAc]W[Phe(4-COOH)]G[Pro(trans-4-NH2)][1Nal(3S-Me)]D[dNMeA]G[Bip(4'-COOH)][1Nal][Dab][Aib]G)
SMILES: CC(=O)NCCOc1ccc(C[C@@H]2NC(=O)CNC(=O)C(C)(C)NC(=O)[C@H](CCN)NC(=O)[C@H](Cc3cccc4ccccc34)NC(=O)[C@H](Cc3ccc(-c4ccc(C(=O)O)cc4)cc3)NC(=O)CNC(=O)[C@@H](C)N(C)C(=O)[C@H](CC(=O)O)NC(=O)[C@H]([C@@H](C)c3cccc4ccccc34)NC(=O)[C@@H]3C[C@@H](N)CN3C(=O)CNC(=O)[C@H](Cc3ccc(C(=O)O)cc3)NC(=O)[C@H](Cc3c[nH]c4ccccc34)NC2=O)cc1
B7: SEQ ID NO: 90 (peptide)
peptide: cyclo([TyrEtNAc]W[Phe(4-COOH)]G[Pro(trans-4-NH2)][1Nal(3S-Me)]D[dNMeA]G[Bip(4'-COOH)][Ala(indazol-1-yl)]G[dDab][h3Pal(5-CN)])
SMILES: CC(=O)NCCOc1ccc(C[C@@H]2NC(=O)[C@H](CCc3cncc(C#N)c3)NC(=O)[C@@H](CCN)NC(=O)CNC(=O)[C@H](Cn3ncc4ccccc43)NC(=O)[C@H](Cc3ccc(-c4ccc(C(=O)O)cc4)cc3)NC(=O)CNC(=O)[C@@H](C)N(C)C(=O)[C@H](CC(=O)O)NC(=O)[C@H]([C@@H](C)c3cccc4ccccc34)NC(=O)[C@@H]3C[C@@H](N)CN3C(=O)CNC(=O)[C@H](Cc3ccc(C(=O)O)cc3)NC(=O)[C@H](Cc3c[nH]c4ccccc34)NC2=O)cc1
B8: SEQ ID NO: 94 (peptide)
peptide: cyclo([TyrEtNAc]W[Phe(4-COOH)]G[Pro(trans-4-NH2)][1Nal(3S-Me)]D[dNMeA]G[Bip(4'-COOH)][1Nal][Dap][Aib][h3Pal(5-CN)])
SMILES: CC(=O)NCCOc1ccc(C[C@@H]2NC(=O)[C@H](CCc3cncc(C#N)c3)NC(=O)C(C)(C)NC(=O)[C@H](CN)NC(=O)[C@H](Cc3cccc4ccccc34)NC(=O)[C@H](Cc3ccc(-c4ccc(C(=O)O)cc4)cc3)NC(=O)CNC(=O)[C@@H](C)N(C)C(=O)[C@H](CC(=O)O)NC(=O)[C@H]([C@@H](C)c3cccc4ccccc34)NC(=O)[C@@H]3C[C@@H](N)CN3C(=O)CNC(=O)[C@H](Cc3ccc(C(=O)O)cc3)NC(=O)[C@H](Cc3c[nH]c4ccccc34)NC2=O)cc1
B9: SEQ ID NO: 97 (peptide)
peptide: cyclo([TyrEtNAc]W[Phe(4-COOH)]G[Pro(trans-4-NH2)][1Nal(3S-Me)]D[dNMeA]G[Bip(4'-COOH)][1Nal]L[dA]A)
SMILES: CC(=O)NCCOc1ccc(C[C@@H]2NC(=O)[C@H](C)NC(=O)[C@@H](C)NC(=O)[C@H](CC(C)C)NC(=O)[C@H](Cc3cccc4ccccc34)NC(=O)[C@H](Cc3ccc(-c4ccc(C(=O)O)cc4)cc3)NC(=O)CNC(=O)[C@@H](C)N(C)C(=O)[C@H](CC(=O)O)NC(=O)[C@H]([C@@H](C)c3cccc4ccccc34)NC(=O)[C@@H]3C[C@@H](N)CN3C(=O)CNC(=O)[C@H](Cc3ccc(C(=O)O)cc3)NC(=O)[C@H](Cc3c[nH]c4ccccc34)NC2=O)cc1
B10: SEQ ID NO: 9 (peptide)
peptide: cyclo([3AzaTyrEtNAc]W[Phe(4-COOH)]G[Pro(trans-4-NH2)][Trp(βS-Me,4-F)]D[dNMeA]G[Bip(4'-COOH)]KL[dA][hTyr])
SMILES: CC(=O)NCCOc1ccc(C[C@@H]2NC(=O)[C@H](CCc3ccc(O)cc3)NC(=O)[C@@H](C)NC(=O)[C@H](CC(C)C)NC(=O)[C@H](CCCCN)NC(=O)[C@H](Cc3ccc(-c4ccc(C(=O)O)cc4)cc3)NC(=O)CNC(=O)[C@@H](C)N(C)C(=O)[C@H](CC(=O)O)NC(=O)[C@H]([C@@H](C)c3c[nH]c4cccc(F)c34)NC(=O)[C@@H]3C[C@@H](N)CN3C(=O)CNC(=O)[C@H](Cc3ccc(C(=O)O)cc3)NC(=O)[C@H](Cc3c[nH]c4ccccc34)NC2=O)cn1
B11: SEQ ID NO: 95 (peptide)
peptide: cyclo([TyrEtNAc]W[Phe(4-COOH)]G[Pro(trans-4-NH2)][1Nal(3S-Me)]D[dNMeA]G[Bip(4'-COOH)][1Nal]L[Aib]G)
SMILES: CC(=O)NCCOc1ccc(C[C@@H]2NC(=O)CNC(=O)C(C)(C)NC(=O)[C@H](CC(C)C)NC(=O)[C@H](Cc3cccc4ccccc34)NC(=O)[C@H](Cc3ccc(-c4ccc(C(=O)O)cc4)cc3)NC(=O)CNC(=O)[C@@H](C)N(C)C(=O)[C@H](CC(=O)O)NC(=O)[C@H]([C@@H](C)c3cccc4ccccc34)NC(=O)[C@@H]3C[C@@H](N)CN3C(=O)CNC(=O)[C@H](Cc3ccc(C(=O)O)cc3)NC(=O)[C@H](Cc3c[nH]c4ccccc34)NC2=O)cc1
B12: SEQ ID NO: 98 (peptide)
peptide: cyclo([TyrEtNAc]W[Phe(4-COOH)]G[Pro(trans-4-NH2)][1Nal(3S-Me)]D[dNMeA]G[Bip(4'-COOH)][1Nal][Nva][dA]A)
SMILES: CCC[C@@H]1NC(=O)[C@H](Cc2cccc3ccccc23)NC(=O)[C@H](Cc2ccc(-c3ccc(C(=O)O)cc3)cc2)NC(=O)CNC(=O)[C@@H](C)N(C)C(=O)[C@H](CC(=O)O)NC(=O)[C@H]([C@@H](C)c2cccc3ccccc23)NC(=O)[C@@H]2C[C@@H](N)CN2C(=O)CNC(=O)[C@H](Cc2ccc(C(=O)O)cc2)NC(=O)[C@H](Cc2c[nH]c3ccccc23)NC(=O)[C@H](Cc2ccc(OCCNC(C)=O)cc2)NC(=O)[C@H](C)NC(=O)[C@@H](C)NC1=O
B13: SEQ ID NO: 96 (peptide)
peptide: cyclo([TyrEtNAc]W[Phe(4-COOH)]G[Pro(trans-4-NH2)][1Nal(3S-Me)]D[dNMeA]G[Bip(4'-COOH)][1Nal]L[Aib][hTyr])
SMILES: CC(=O)NCCOc1ccc(C[C@@H]2NC(=O)[C@H](CCc3ccc(O)cc3)NC(=O)C(C)(C)NC(=O)[C@H](CC(C)C)NC(=O)[C@H](Cc3cccc4ccccc34)NC(=O)[C@H](Cc3ccc(-c4ccc(C(=O)O)cc4)cc3)NC(=O)CNC(=O)[C@@H](C)N(C)C(=O)[C@H](CC(=O)O)NC(=O)[C@H]([C@@H](C)c3cccc4ccccc34)NC(=O)[C@@H]3C[C@@H](N)CN3C(=O)CNC(=O)[C@H](Cc3ccc(C(=O)O)cc3)NC(=O)[C@H](Cc3c[nH]c4ccccc34)NC2=O)cc1

target: Recombinant human IL-1β (BioLegend 579404) (human, UniProt P01584 117-269); test: cell-based or functional assay

First: B1
Second: B2
The “MRC5 IC50” value of the first is 3.4-fold lower: 0.0248 nM for the first, 0.085 nM for the second.

target: Recombinant human IL-1β (BioLegend 579404) (human, UniProt P01584 117-269); test: cell-based or functional assay; remark: another data set of the same source

Going from B3 to B4, the “MRC5 IC50” value rises from 0.0234 nM to 0.256 nM (11-fold).

Compared with B5, B6 is 3.8-fold higher in “MRC5 IC50” value: 0.12 nM for the first, 0.457 nM for the second.

B7 and B8 are within 1.5-fold of each other in “MRC5 IC50” value: 0.0507 nM for the first, 0.0639 nM for the second.

Compared with B9, B10 is 2.5-fold lower in “MRC5 IC50” value: 0.294 nM for the first, 0.118 nM for the second.

B11 and B12 are within 1.5-fold of each other in “MRC5 IC50” value: 0.422 nM for the first, 0.494 nM for the second.

In the case of B13, the “MRC5 IC50” value is reported as 0.464 nM.

Source: US20230406885A1, “CYCLIC PEPTIDES FOR TRAPPING INTERLEUKIN-1 BETA” (MERCK SHARP & DOHME LLC, priority 2022, published 2023)
